# Assay: soluble on expression in E. coli; label from the status in PepcDB or PDB records
row,Sequence,soluble on expression in E. coli
1,MNVASRVVVNADRVKGTINRNIYGHFSEHLGRCIYEGLWVGEDSPIPNTNGIRNDVLEALKQMKIPVLRWPGGCFADEYHWKDGVGPREKRKRMVNTHWGGVIENNHFGTHEFMMLCELLGCEPYISGNVGSGTVQEMSEWVEYITFDGESPMANWRRENGREKPWRIKYWGVGNQNWGCGGNMRAEYYADLYRQFQTYLRNYGDNKLHKIACGANTADYHWTEVLMKQAAPFMHGLSLHYYTVPGPWEKKGPATGFTTDEWWVTLKKALFMDRLVTKHSAIMDVYDPDKRIDLIVDEWGTWYDVEPGTNPGFLYQQNSIRDALVAGATLHIFHRHCDRVRMANIAQLVNVLQSVILTEGERMLLTPTYHVFNMFKVHQDAELLDTWESVERTGPEGELPKVSVSASRAADGKIHISLCNLDFETGASVDIELRGLNGGVSATGTTLTSGRIDGHNTFDEPERVKPAPFRDFKLEGGHLNASLPPMSVTVLELTAG,soluble
2,DIKMTQSPSSMSASLGESVTITCKASRDIKSYLSWYQQKPWKSPKTLIYYATSLADGVPSRFSGSGSGQDYSLTISSLESDDTATYYCLQHGESPFTFGSGTKLELKRADAAPTVSIFPPSSEQLTSGGASVVCFLNNFYPKDINVKWKIDGSERQNGVLNSWTDQDSKDSTYSMSSTLTLTKDEYERHNSYTCEATHKTSTSPIVKSFN,soluble
3,MGSDKIHHHHHHMTTGKKVARRKLSLLELASELDNVSKACRIMGYSRQQFYEIRRNYQTFGAEGLVDRLPGPREPHPNRVDEATEDRILAYSLEFPTHGPVRVAQQLVLQGVQVSSGGVRGVWSRNGMLTRHERLLRLERHVRDTGIALNDDQVRTLERFSPEFRERHIETRCSGDLVAVDTFFVGTLKGVGKIYLQSAIDCHSRYAFGRLYTSKLPVTAVHMLNESVLPFFEEHDTPVVTVLSDNGREFCGRPDRHPYELFLQLENIEHRTTRVRRPQSNGFVERLHRTLLDEHFRIQGRKNWYESLDEMQADLDAYLRHYNHERAHQGRNMSGRTPYQAFLDSRPEGQPKEDNEGHYAA,not soluble
4,MVKKMVIAVRKDLDMGKGKIAAQVAHAAVTCAIRSMKINRDVFNEWYDEGQRKIVVKVNDLDEIMEIKRMADSMGIVNEIVQDRGYTQVEPGTITCIGLGPDEEEKLDKITGKYKLL,soluble
5,MGSDKIHHHHHHMAIVRTVLGDITPDQAGSTLTHEHIRYAYPGCELDHRCVWDFDFVAEDVGKQFEEMREGCGIKTVVELTPPEIGRHPELFAQIARRSGMNIVATTGFFPEANAMGIPFHWRRQRKEDVVNMLIRDLTEGMIYDGQKTPYRAGILKAATGSLTAKTRTPVNEKGRRIGNVETHVISAIAAAQREVGCAINTHTQPLDYAVCNPGIELLDELEEGGADPTKVIIGHAFVHPNIDQLKAICERGASVQVDHIGIPWQNDSRAQLDELIAVAMCQLADLGHLDKLVVSYDKFFSHARGPVTEEEPEQLNELVPNDYIMTEFAPRLERKGFGARELHQVMVENPKRLLAF,not soluble
6,MGKPTGFLEYTREIPQELSPGDRLRNWDEFHVTMPDKQVETQGARCMDCGTPFCHTGSLISGMASGCPINNLIPEFNDLVYRGLWREALDRLHKTNNFPEFTGRVCPAPCEGSCVLGINNPPVTIKNIEYSIIEKGWQEGWVTPEPPAKRTGKKVAVVGSGPAGLAAAAQLNKAGHWVTVYEREDRPGGLLMYGIPNMKLDKEEVVLRRLNVLEAEGVTFVCNTEIGKDLPPETLLKDYDAVVLCTGATKPRDLAIAGRELEGIHFAMEFLTANTKAILDKTPGPNFISAKDKDVVIIGGGDTGTDCVGTSLRHGCRSLVQLEIMPKPPEERAANNPWPEWPKVYKMDYGQEEAAAVYGHDPRSYLTTATKIEGDDQGRVKAVHTVDVRWEKDGQGRFIPQQVAGTEQVRPAQLVLLAMGFVGPESQLLDAMKLDKDARGNIKAEYGQYETSIPGVFAAGDCRRGQSLVVWAFNEGRGAAKACDLYLMGETDLPLEHHHHHH,not soluble
7,MGTYVEPSKLSYGEYLESWFNTKRHSVGIQTAKVLKGYLNSRIIPSLGNIKLAKLTSLHMQNYVNSLRDEGLKRGTIEKIIKVIRNSLEHAIDLELITKNVAAKTKLPKADKEELEHHHHHH,not soluble

# Source: the DeepSol protein solubility set
